# Laboratory results published in US20240261333A1, “NOVEL TARGETS FOR ENHANCING ANTI-TUMOR IMMUNITY” (THE BROAD INSTITUTE, INC., priority 2021, published 2024).
# Tests used:
# [1] = molecular target: CPT1A (human) (UniProt P50416); test: co-IP with anti-FLAG, C-FLAG B3GNT2, mass spectrometry
# [2] = molecular target: LAMC1 (human) (UniProt P11047); test: as above
# [3] = molecular target: COPA (human) (UniProt P53621); test: as above
# [4] = molecular target: LUC7L3 (human) (UniProt O95232); test: as above
# [5] = molecular target: PLOD1 (human) (UniProt Q02809); test: as above
# PLOD1 (human), sequence (Q02809 19-727 limits assumed): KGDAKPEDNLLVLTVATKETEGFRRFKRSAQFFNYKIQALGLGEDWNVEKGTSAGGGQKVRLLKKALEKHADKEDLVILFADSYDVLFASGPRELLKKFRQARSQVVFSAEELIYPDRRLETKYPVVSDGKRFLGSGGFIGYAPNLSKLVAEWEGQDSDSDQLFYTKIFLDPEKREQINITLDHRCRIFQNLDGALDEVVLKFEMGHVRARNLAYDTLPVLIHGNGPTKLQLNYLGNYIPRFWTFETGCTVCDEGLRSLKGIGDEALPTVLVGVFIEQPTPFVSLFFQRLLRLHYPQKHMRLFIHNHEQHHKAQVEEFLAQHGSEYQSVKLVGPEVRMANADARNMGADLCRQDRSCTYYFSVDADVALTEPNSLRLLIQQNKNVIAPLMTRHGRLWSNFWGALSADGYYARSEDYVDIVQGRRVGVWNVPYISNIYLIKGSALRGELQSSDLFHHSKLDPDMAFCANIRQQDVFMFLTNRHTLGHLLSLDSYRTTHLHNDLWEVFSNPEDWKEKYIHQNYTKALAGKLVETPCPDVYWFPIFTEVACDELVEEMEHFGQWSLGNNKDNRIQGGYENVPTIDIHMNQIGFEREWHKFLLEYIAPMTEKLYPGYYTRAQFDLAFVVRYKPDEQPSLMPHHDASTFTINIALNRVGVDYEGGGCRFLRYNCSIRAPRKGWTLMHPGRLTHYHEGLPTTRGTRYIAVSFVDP
# [6] = molecular target: CCT3 (human) (UniProt P49368); test: as above
# [7] = molecular target: RPL8 (human) (UniProt P62917); test: as above
# [8] = molecular target: MAP4 (human) (UniProt P27816); test: as above
# [9] = molecular target: CALML5 (human) (UniProt Q9NZT1); test: as above
# CALML5 (human), sequence (Q9NZT1 2-146 limits assumed): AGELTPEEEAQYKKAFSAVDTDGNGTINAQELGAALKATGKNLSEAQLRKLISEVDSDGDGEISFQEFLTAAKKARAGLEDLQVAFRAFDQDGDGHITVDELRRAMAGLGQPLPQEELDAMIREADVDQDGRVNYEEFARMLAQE
# [10] = molecular target: RPS27A (human) (UniProt P62979); test: as above
# [11] = molecular target: HNRNPH1 (human) (UniProt P31943); test: as above
# [12] = molecular target: RHOT2 (human) (UniProt Q8IXI1); test: as above
# RHOT2 (human), sequence (Q8IXI1 whole entry): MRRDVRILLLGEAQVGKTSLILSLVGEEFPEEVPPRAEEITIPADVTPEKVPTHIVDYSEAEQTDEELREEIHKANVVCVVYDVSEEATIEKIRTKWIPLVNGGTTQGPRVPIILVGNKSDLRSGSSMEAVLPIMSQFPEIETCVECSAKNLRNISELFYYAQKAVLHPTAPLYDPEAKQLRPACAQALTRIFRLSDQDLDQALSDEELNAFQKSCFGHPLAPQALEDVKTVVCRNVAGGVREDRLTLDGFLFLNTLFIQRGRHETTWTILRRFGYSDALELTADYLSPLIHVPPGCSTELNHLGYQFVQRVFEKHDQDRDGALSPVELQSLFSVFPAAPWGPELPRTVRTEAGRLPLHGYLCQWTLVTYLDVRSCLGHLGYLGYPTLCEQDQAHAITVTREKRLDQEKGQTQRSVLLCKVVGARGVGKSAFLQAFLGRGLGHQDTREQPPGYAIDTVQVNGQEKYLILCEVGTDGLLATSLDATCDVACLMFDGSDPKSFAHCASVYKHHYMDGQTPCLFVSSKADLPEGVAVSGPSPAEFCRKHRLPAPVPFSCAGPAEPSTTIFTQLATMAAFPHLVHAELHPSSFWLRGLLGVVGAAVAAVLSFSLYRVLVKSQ
# [13] = molecular target: IL13RA2 (human) (UniProt Q14627); test: as above
# [14] = molecular target: RPL28 (human) (UniProt P46779); test: as above
# [15] = molecular target: ARPC1B (human) (UniProt O15143); test: as above
# [16] = molecular target: DHX9 (human) (UniProt Q08211); test: as above
# [17] = molecular target: KCTD5 (human) (UniProt Q9NXV2); test: as above
# [18] = molecular target: TPM2 (human) (UniProt P07951); test: as above
# [19] = molecular target: TM9SF1 (human) (UniProt O15321); test: as above
# [20] = molecular target: TELO2 (human) (UniProt Q9Y4R8); test: as above
# [21] = molecular target: P4HA2 (human) (UniProt O15460); test: as above
# P4HA2 (human), sequence (O15460 22-535 limits assumed): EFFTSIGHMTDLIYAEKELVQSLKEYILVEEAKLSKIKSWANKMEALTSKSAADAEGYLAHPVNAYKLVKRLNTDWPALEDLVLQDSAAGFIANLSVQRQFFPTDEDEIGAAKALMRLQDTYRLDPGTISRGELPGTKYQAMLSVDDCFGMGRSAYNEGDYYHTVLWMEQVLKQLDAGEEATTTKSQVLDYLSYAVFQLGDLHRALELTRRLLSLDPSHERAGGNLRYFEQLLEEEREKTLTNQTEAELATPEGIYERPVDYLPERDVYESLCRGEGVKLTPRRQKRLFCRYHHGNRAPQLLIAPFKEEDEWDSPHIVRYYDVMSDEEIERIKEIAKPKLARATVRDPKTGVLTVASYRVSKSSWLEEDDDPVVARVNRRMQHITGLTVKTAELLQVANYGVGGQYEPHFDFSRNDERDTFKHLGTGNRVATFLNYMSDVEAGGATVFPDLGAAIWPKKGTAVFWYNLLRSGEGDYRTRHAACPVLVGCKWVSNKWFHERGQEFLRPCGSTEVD
# [22] = molecular target: SERPINB3 (human) (UniProt P29508); test: as above
# [23] = molecular target: SYNPO (human) (UniProt Q8N3V7); test: as above
# [24] = molecular target: RPL7A (human) (UniProt P62424); test: as above
# [25] = molecular target: RUVBL2 (human) (UniProt Q9Y230); test: as above
# [26] = molecular target: LCN1 (human) (UniProt P31025); test: as above
# [27] = molecular target: EIF3A (human) (UniProt Q14152); test: as above
# [28] = molecular target: GSN (human) (UniProt P06396); test: as above
# [29] = molecular target: TTC13 (human) (UniProt Q8NBP0); test: as above
# TTC13 (human), sequence (Q8NBP0 other isoform, or with tags, fused parts or gaps limits assumed): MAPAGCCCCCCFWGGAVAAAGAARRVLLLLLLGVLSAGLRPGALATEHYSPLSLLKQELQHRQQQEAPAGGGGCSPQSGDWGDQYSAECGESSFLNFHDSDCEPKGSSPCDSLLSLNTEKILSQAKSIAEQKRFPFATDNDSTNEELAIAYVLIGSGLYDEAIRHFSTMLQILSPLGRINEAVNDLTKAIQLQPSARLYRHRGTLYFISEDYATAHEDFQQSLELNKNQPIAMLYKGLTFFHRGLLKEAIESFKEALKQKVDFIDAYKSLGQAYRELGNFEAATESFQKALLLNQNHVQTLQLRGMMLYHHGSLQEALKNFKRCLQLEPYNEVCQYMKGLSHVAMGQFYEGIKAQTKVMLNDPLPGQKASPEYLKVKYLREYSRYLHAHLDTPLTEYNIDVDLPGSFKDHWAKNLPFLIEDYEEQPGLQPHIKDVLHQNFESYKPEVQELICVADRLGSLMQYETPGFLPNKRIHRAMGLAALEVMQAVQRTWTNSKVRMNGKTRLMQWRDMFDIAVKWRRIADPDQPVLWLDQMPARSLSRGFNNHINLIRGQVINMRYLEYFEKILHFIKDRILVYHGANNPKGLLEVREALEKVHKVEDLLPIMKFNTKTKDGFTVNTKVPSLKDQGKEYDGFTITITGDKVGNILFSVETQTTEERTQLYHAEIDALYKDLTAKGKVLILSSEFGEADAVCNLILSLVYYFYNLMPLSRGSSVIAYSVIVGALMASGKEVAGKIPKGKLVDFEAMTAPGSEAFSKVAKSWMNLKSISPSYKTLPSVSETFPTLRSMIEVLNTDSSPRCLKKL
# [30] = molecular target: EMILIN1 (human) (UniProt Q9Y6C2); test: as above
# [31] = molecular target: NAP1L1 (human) (UniProt P55209); test: as above
# NAP1L1 (human), sequence (P55209 2-388 limits assumed): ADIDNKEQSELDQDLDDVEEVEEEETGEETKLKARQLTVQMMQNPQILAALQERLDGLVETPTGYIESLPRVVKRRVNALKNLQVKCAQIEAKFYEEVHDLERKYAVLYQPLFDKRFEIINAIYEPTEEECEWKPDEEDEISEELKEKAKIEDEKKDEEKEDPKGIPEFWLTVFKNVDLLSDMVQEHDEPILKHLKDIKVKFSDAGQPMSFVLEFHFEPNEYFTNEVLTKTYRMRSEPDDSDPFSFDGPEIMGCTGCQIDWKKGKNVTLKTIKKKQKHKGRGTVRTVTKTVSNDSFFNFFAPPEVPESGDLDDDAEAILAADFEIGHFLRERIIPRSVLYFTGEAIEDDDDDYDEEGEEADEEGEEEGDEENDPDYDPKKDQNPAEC
# [32] = molecular target: SYNCRIP (human) (UniProt O60506); test: as above
# [33] = molecular target: GEMIN4 (human) (UniProt P57678); test: as above
# [34] = molecular target: RPL6 (human) (UniProt Q02878); test: as above
# [35] = molecular target: RPL27A (UniProt P46776); test: co-IP, anti-FLAG, N-FLAG B3GNT2 cell lysate, mass spectrometry
# [36] = molecular target: HIST1H1E (UniProt P10412); test: as above
# HIST1H1E, sequence (P10412 2-219 limits assumed): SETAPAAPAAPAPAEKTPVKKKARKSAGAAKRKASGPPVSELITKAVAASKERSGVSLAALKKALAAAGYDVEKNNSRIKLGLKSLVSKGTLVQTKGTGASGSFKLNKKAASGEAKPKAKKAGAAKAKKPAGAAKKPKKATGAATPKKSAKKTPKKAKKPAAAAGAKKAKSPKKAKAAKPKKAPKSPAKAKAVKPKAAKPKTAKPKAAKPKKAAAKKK
# [37] = molecular target: RPL3 (UniProt P39023); test: as above
# [38] = molecular target: PSMA7 (UniProt O14818); test: as above
# [39] = molecular target: POF1B (UniProt Q8WVV4); test: as above
# [40] = molecular target: MTCH2 (UniProt Q9Y6C9); test: as above
# LAMC1 (human), sequence (P11047 34-1609 limits assumed): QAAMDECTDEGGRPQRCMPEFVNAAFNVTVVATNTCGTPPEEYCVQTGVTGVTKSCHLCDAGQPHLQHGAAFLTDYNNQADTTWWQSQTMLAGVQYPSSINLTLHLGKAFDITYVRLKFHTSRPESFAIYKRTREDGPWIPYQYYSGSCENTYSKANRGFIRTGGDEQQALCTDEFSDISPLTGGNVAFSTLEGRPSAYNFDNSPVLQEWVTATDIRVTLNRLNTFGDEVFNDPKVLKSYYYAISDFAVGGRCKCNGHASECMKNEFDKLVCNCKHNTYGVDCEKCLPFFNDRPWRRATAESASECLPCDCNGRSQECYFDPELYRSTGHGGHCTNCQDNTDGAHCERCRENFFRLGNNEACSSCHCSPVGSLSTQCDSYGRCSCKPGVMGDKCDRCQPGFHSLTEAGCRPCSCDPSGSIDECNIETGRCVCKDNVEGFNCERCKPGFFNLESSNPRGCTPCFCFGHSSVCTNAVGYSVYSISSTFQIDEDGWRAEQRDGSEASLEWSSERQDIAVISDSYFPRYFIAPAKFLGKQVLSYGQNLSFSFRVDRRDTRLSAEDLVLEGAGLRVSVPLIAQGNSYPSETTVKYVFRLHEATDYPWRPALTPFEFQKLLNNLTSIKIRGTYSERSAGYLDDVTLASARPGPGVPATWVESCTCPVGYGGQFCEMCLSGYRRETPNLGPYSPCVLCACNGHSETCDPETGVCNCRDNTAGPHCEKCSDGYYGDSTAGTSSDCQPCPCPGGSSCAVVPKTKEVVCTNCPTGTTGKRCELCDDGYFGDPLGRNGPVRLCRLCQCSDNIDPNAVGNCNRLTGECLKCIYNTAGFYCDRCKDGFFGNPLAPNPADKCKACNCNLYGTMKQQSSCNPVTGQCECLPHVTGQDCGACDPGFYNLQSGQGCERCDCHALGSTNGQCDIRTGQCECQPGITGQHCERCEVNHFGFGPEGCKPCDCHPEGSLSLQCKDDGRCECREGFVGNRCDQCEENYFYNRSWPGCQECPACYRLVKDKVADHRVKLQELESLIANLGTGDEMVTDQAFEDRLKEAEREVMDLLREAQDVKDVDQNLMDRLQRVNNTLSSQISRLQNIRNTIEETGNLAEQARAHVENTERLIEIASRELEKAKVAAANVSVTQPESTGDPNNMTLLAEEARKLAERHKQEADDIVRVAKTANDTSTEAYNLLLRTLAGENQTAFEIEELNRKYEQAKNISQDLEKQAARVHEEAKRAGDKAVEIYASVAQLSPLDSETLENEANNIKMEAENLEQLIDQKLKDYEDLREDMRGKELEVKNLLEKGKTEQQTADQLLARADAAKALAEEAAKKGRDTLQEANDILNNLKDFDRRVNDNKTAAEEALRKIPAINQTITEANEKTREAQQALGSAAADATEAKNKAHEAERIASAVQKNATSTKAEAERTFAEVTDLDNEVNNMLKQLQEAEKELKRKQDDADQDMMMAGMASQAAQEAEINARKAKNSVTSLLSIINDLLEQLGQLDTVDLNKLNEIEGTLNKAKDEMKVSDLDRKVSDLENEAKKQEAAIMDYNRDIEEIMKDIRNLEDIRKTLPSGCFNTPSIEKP
substance,measurement,setting,value
C-terminal FLAG tagged B3GNT2 (from UniProt Q9NY97 1-397) (enzyme),"co-IP/MS count, C-term flag",[1],2
same,"co-IP/MS count, C-term flag",[2],4
same,"co-IP/MS count, C-term flag",[3],2
same,"co-IP/MS count, C-term flag",[4],3
same,"co-IP/MS count, C-term flag",[5],4
same,co-IP mass spectrometry count,[6],5
same,co-IP mass spectrometry count,[7],15
same,co-IP mass spectrometry count,[8],5
same,co-IP mass spectrometry count,[9],4
same,co-IP mass spectrometry count,[10],27
same,"co-IP/MS count, C-term flag",[11],15
same,co-IP mass spectrometry count,[12],2
same,co-IP mass spectrometry count,[13],2
same,co-IP mass spectrometry count,[14],16
same,"co-IP/MS count, C-term flag",[15],5
same,co-IP mass spectrometry count,[16],5
same,co-IP mass spectrometry count,[17],3
same,"co-IP/MS count, C-term flag",[18],4
same,"co-IP/MS count, C-term flag",[19],4
same,co-IP mass spectrometry count,[20],3
same,"co-IP/MS count, C-term flag",[21],4
same,co-IP mass spectrometry count,[22],9
same,co-IP mass spectrometry count,[23],7
same,"co-IP/MS count, C-term flag",[24],22
same,"co-IP/MS count, C-term flag",[25],4
same,co-IP mass spectrometry count,[26],11
same,co-IP mass spectrometry count,[27],3
same,co-IP mass spectrometry count,[28],3
same,"co-IP/MS count, C-term flag",[29],4
same,co-IP mass spectrometry count,[30],3
same,"co-IP/MS count, C-term flag",[31],4
same,co-IP mass spectrometry count,[32],13
same,co-IP mass spectrometry count,[33],5
same,"co-IP/MS count, C-term flag",[34],20
N-terminal FLAG tagged B3GNT2 (from UniProt Q9NY97 1-397) (enzyme),co-IP mass spectrometry count,[35],7
same,co-IP mass spectrometry count,[36],6
same,co-IP mass spectrometry count,[37],8
same,co-IP mass spectrometry count,[38],4
same,co-IP mass spectrometry count,[39],5
same,co-IP mass spectrometry count,[40],4
